Among the data in paper PMC3508667 (Biochemistry, 2012) are Kd values, retold here.

Sequences and labels used below:
B1: (Phe94)-scFv (scFv, V domains shown)
VH: DIQLQESGPSLVKPSQTLSLTCSVTGDSITSDYWSWIRKFPGNRLEYMGYVSYSGSTYYNPSLKSRISITRDTSKNQYYLDLNSVTTEDTATYYCANWDGDYWGQGTLVTVSA
VL: DIVLTQSPATLSVTPGNSVSLSCRASQSIGNNLHWYQQKSHESPRLLIKYASQSISGIPSRFSGSGSGTDFTLSINSVETEDFGMYFCQQSNSFPYTFGGGTKLEIT
B2: ^5FW(Phe34)-scFv (scFv, V domains shown)
VH: DIQLQESGPSLVKPSQTLSLTCSVTGDSITSDYFSWIRKFPGNRLEYMGYVSYSGSTYYNPSLKSRISITRDTSKNQYYLDLNSVTTEDTATYYCANWDGDYWGQGTLVTVSA
VL: DIVLTQSPATLSVTPGNSVSLSCRASQSIGNNLHWYQQKSHESPRLLIKYASQSISGIPSRFSGSGSGTDFTLSINSVETEDFGMYFCQQSNSWPYTFGGGTKLEIT
B3: (Phe34)-scFv (scFv, V domains shown)
VH: DIQLQESGPSLVKPSQTLSLTCSVTGDSITSDYFSWIRKFPGNRLEYMGYVSYSGSTYYNPSLKSRISITRDTSKNQYYLDLNSVTTEDTATYYCANWDGDYWGQGTLVTVSA
VL: DIVLTQSPATLSVTPGNSVSLSCRASQSIGNNLHWYQQKSHESPRLLIKYASQSISGIPSRFSGSGSGTDFTLSINSVETEDFGMYFCQQSNSWPYTFGGGTKLEIT
B4: ^5FW(Phe94)-scFv (scFv, V domains shown)
VH: DIQLQESGPSLVKPSQTLSLTCSVTGDSITSDYWSWIRKFPGNRLEYMGYVSYSGSTYYNPSLKSRISITRDTSKNQYYLDLNSVTTEDTATYYCANWDGDYWGQGTLVTVSA
VL: DIVLTQSPATLSVTPGNSVSLSCRASQSIGNNLHWYQQKSHESPRLLIKYASQSISGIPSRFSGSGSGTDFTLSINSVETEDFGMYFCQQSNSFPYTFGGGTKLEIT
B5: ^5FW(Phe36)-scFv (scFv, V domains shown)
VH: DIQLQESGPSLVKPSQTLSLTCSVTGDSITSDYWSFIRKFPGNRLEYMGYVSYSGSTYYNPSLKSRISITRDTSKNQYYLDLNSVTTEDTATYYCANWDGDYWGQGTLVTVSA
VL: DIVLTQSPATLSVTPGNSVSLSCRASQSIGNNLHWYQQKSHESPRLLIKYASQSISGIPSRFSGSGSGTDFTLSINSVETEDFGMYFCQQSNSWPYTFGGGTKLEIT
B6: (Phe36)-scFv (scFv, V domains shown)
VH: DIQLQESGPSLVKPSQTLSLTCSVTGDSITSDYWSFIRKFPGNRLEYMGYVSYSGSTYYNPSLKSRISITRDTSKNQYYLDLNSVTTEDTATYYCANWDGDYWGQGTLVTVSA
VL: DIVLTQSPATLSVTPGNSVSLSCRASQSIGNNLHWYQQKSHESPRLLIKYASQSISGIPSRFSGSGSGTDFTLSINSVETEDFGMYFCQQSNSWPYTFGGGTKLEIT

In one experiment the target is hen egg white lysozyme (hen) (UniProt P00698). As to the kind of experiment: SPR.
Chain of hen egg white lysozyme (hen) (P00698 19-147): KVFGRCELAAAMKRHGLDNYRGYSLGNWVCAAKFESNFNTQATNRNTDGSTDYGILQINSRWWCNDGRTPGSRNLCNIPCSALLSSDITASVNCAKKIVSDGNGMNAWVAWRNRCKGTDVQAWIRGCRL
“^5FW-scFv (HyHEL10 scFv, all Trp residues substituted with 5-fluorotryptophan)”: the Kd stood at 4.03 nM.

In the next experiment the target is hen egg white lysozyme (Gallus gallus (hen egg white), UniProt P00698). In words: SPR.
Chain of hen egg white lysozyme (P00698 19-147): as above
As for B1, the Kd was determined as 0.272 nM. That is a sub-nanomolar value.
Regarding B2, the Kd came out at 1.22 nM.
As to B3, binding was characterised by a dissociation constant (Kd) of 0.266 nM. This Kd is about 4.6-fold lower than that of the molecule before.
Regarding B4, binding was characterised by a dissociation constant (Kd) of 1.99 nM.
The molecule B5 registered an equilibrium dissociation constant (Kd) of 4.22 nM.
On the same count and under the same terms, the figure for B6 is 0.559 nM.
